By EC50 (read off the curve) is commonly meant the concentration needed to bring the measured effect to its halfway point.

The record followed here is US20260035475A1 (BIOARCTIC, published 2026).

The target of assay [1] is T1, chimeric TfR1 consisting of human protease like domain grafted on mouse TfR1 ectodomain (SEQ ID NO:78) (human/mouse chimera).
T1 construct: His-tagged; also called h/m protease-like domain chimera
T1 chain: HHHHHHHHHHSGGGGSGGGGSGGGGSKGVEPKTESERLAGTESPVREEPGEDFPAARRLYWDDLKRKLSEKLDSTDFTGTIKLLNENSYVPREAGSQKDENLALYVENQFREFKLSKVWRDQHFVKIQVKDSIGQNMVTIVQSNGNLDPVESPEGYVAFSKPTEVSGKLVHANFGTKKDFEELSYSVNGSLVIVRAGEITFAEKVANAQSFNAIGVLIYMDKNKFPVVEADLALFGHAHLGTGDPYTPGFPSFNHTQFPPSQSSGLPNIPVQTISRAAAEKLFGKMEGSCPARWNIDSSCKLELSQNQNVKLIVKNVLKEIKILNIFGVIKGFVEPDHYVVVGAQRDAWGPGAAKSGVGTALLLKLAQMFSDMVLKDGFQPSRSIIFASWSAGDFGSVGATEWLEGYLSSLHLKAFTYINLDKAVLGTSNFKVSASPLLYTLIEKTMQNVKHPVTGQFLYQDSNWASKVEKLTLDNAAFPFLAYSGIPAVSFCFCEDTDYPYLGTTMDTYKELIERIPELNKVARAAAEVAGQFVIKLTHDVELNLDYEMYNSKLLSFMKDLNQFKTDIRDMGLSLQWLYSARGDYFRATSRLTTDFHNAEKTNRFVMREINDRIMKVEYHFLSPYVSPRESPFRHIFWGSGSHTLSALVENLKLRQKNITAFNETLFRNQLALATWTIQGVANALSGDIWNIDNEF
In words: indirect ELISA on coated h/m protease-like domain chimera (1 ug/ml), IgG dilution series; x axis printed 'TfR (ng/ml)' [D]. The procedure: Plasma samples serially diluted from a starting dilution of 1/450 or hybridoma supernatants diluted 1/2 were added to the plates (50 μl/well; dilution buffer: PBS with 0.1% BSA and 0.05% TWEEN®-20) and incubated for 2 h at room temperature and then the plates were washed four times. […] After another wash (as above), 50 μl/well TMB substrate (K-Blue® Aqueous, Neogen) was added, and the reaction was stopped after 10-15 min with 50 μl/well of 0.5 M H₂SO₄. The optical density at 450 nm was read using a plate reader (Tecan). The endpoint titers were defined as the dilution above the average of the blank wells (background) plus 3 standard deviations of the blank wells.
The coated plates were then blocked. Dilution series of mouse IgG of the analyzed antibodies were prepared in PBS and incubated on the ELISA plates. Unbound antibodies were then washed off before incubating wells with a HRP-conjugated secondary, anti-mouse-IgG for 1 h. Plates were then washed again before addition of HRP substrate TMB for development and detection of antibody binding to the wells. TMB development was stopped by adding 0.5 M H₂SO₄ to the wells and ELISA responses measured as the OD at 450 nm in an ELISA plate reader.
Background: An ELISA detects its analyte on a solid surface through an enzyme-linked reagent.

The target of assay [2] is T2, ectodomain of human TfR1 (His10-hTfR1; SEQ ID NO:74) (human, UniProt P02786 89-760).
T2 construct: His-tagged ectodomain; also called ectodomain of hTfR1
T2 sequence (P02786 other isoform, or with tags, fused parts or gaps): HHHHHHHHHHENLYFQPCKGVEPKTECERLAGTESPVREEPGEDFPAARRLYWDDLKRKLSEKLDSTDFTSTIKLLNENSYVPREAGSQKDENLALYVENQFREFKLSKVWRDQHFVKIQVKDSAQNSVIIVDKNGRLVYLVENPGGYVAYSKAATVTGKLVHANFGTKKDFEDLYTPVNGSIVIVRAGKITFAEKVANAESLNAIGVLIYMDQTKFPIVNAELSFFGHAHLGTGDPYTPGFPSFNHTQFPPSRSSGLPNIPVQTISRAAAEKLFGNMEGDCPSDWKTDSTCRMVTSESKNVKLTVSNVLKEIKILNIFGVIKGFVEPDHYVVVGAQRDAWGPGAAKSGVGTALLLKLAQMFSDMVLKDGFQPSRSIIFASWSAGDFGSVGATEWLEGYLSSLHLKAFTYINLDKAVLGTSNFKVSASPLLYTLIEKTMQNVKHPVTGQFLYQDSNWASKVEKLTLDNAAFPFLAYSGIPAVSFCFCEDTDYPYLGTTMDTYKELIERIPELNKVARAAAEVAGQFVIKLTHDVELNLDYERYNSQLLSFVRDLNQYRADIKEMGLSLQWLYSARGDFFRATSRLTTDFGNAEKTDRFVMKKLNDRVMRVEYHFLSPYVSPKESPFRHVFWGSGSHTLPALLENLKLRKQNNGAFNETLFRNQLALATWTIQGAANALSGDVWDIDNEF
The assay is described as follows: indirect ELISA on coated hTfR1 ectodomain (1 ug/ml), Fab 1:3 dilutions, anti-human IgG F(ab')2-HRP [lower panel]. The procedure:
For the indirect ELISA, half area 96-well plates (Corning, #3690) were coated with 1 μg/ml recombinant ectodomain of hTfR1 (SEQ ID NO:74) in PBS overnight at 4° C. The coated plates were blocked using Pierce protein-free blocking solution (Thermo Fisher Scientific, #37572) for 1 h at room temperature with shaking and washed four times in PBS containing 0.1% TWEEN-20. Serial dilutions (1:3) of various expressed constructs in incubation buffer (1% BSA, 0.1% TWEEN-20 in PBS) were incubated for 1 h at room temperature. […] Following four wash steps, K-Blue® Aqueous TMB substrate (Neogen, #331177) was added to the wells for 15 min at room temperature before the reaction was stopped with 1:1 dilution of 0.5 M H₂SO₄. The optical density at 450 nm was recorded (Spark, Tecan) and background signal was subtracted before analysis.

Changes are numbered by the printed parent chain. Numbers in names are those of the source.

B1: 26D3 (mouse monoclonal antibody) (antibody, V domains shown)
VH: EVQLQQFGVELVKPGASVKISCKASGYIFTDYNMDWVKQSHGKSLEWIGDINPDYDTTSYNEKFKGKATLTVDKSSSTAYMELRSLTSEDTAVYYCARGGYSGSSYYHPMDYWGQGTSVTVSS
VL: DIVMSQSPSSLAVSVGEKITMSCKSSQSLLYSTNQKNYLAWYQQKPGQSPELLIYWASTRESGVPDRFTGSGSGTDFTLTISNVRAEDLAVYYCQQYFIYPRTFGGGTKLEIK
In the case of B1, in assay [1], the binding result was “binds”.

B2: 24B4 (mouse monoclonal antibody) (antibody, V domains shown)
VH: EVQLQQFGAELVKPGTSVKISCKASGYTFTDYNMDWVKQGHGKGLEWIGDINPNYDTTSYSQKFKGKATLTVDKSSSTAYMELRSLTSEDTAVYYCARSEAGNYYWYFDVWGAGTTVTVSS
VL: DIVMSQSPSSLAVSVGEKVTMSCKSSQSLLYSSNRKNYLAWYRQKPGQSPKLLIYWASTRESGVPDRFTGSGSGTDFTLTISSVKAEDLAVYSCQQYYNYPYTFGGGTKLEIK
Turning to B2, the binding result in assay [1] was “binds”.

B3: h26D3-Fab (humanized 26D3) (Fab, V domains shown)
VH: EVQLVQSGAEVKKPGSSVKVSCKASGYIFTDYNMDWVRQAPGQGLEWIGDINPDYDTTSYNEKFKGRATLTVDKSTSTAYMELSSLRSEDTAVYYCARGGYSGSSYYHPMDYWGQGTLVTVSS
VL: DIQMTQSPSSVSASVGDRVTITCKSSQSLLYSTNQKNYLAWYQQKPGKAPKLLIYWASTRESGVPSRFSGSGSGTDFTLTISSLQPEDFATYYCQQYFIYPRTFGQGTKVEIK
notes: His-tagged Fab
For B3, the “EC50 (read off the curve)” value in assay [2] was roughly 0.4 µM.

B4: h26D3 variant HC10 Fab (VH Y106A) (Fab, V domains shown)
VH: B3 VH with Y106A
VL: B3 VL
notes: Single mutant, His-tagged Fab
Take B4: in assay [2], the “EC50 (read off the curve)” value is roughly 1 µM.
